Experiments:
[1] = molecular target: MDC1 (UniProt Q14676); test: biotin-peptide pull-down, Western blot; conditions: reference: unphosphorylated S139 peptide; sites S139
[2] = molecular target: RNF8 (UniProt O76064); test: biotin-peptide pull-down, Western blot
[3] = molecular target: Pellino 2 (PELI2) FHA domain, 1-275 (UniProt Q9HAT8); test: biotin-peptide pull-down, stained gel
[4] = molecular target: Pellino 2 (PELI2) (UniProt Q9HAT8); test: biotin-peptide pull-down, LC-MS/MS; conditions: reference: unphosphorylated T752 peptide; sites T752
[5] = molecular target: RNF8 (UniProt O76064); test: biotin-peptide pull-down, LC-MS/MS; conditions: reference: unphosphorylated T752 peptide; sites T752
[6] = molecular target: Pellino 1 (PELI1) (UniProt Q96FA3); test: biotin-peptide pull-down, LC-MS/MS; conditions: reference: unphosphorylated T752 peptide; sites T752
[7] = reference: unphosphorylated T719 peptide, sites T719
[8] = reference: unphosphorylated T752 peptide, sites T752

## H2AX (from UniProt P16104) pS139 peptide
[1]
  binding against the reference: stronger

## MDC1 (from UniProt Q14676) pT699 peptide
[2]; reference: unphosphorylated T699 peptide, sites T699
  binding against the reference: stronger

## MDC1 (from UniProt Q14676) pT719 peptide
[2]; [7]
  binding against the reference: stronger
[3]; [7]
  binding against the reference: gained

## MDC1 (from UniProt Q14676) pT765 peptide
[2]; reference: unphosphorylated T765 peptide, sites T765
  binding against the reference: stronger

## MDC1 743-757 (from UniProt Q14676) pT752 peptide
[2]; [8]
  binding against the reference: stronger
[4]
  binding against the reference: gained
[5]
  binding against the reference: gained
[6]
  binding against the reference: gained
[3]; [8]
  binding against the reference: gained

From publication PMC11884936, “MDC1 mediates Pellino recruitment to sites of DNA double-strand breaks” (Life Science Alliance, 2025)
